Test results from article PMC4445970 (Nature structural & molecular biology, 2015).

B1: pyocin R2 tube protein (natural protein)
chain: MIPQTLTNTNLFIDGVSFAGDVPSLTLPKLAVKTEQYRAGGMDAPVSIDMGLEAMEAKFSTNGARREALNFFGLADQSAFNGVFRGSFKGQKGASVPVVATLRGLLKEVDPGDWKAGEKAEFKYAVAVSYYKLEVDGREVYEIDPVNGVRAINGVDQLAGMRNDLGL
B2: pyocin R2 sheath protein (natural protein)
chain: MSFFHGVTVTNVDIGARTIALPASSVIGLCDVFTPGAQASAKPNVPVLLTSKKDAAAAFGIGSSIYLACEAIYNRAQAVIVAVGVETAETPEAQASAVIGGISAAGERTGLQALLDGKSRFNAQPRLLVAPGHSAQQAVATAMDGLAEKLRAIAILDGPNSTDEAAVAYAKNFGSKRLFMVDPGVQVWDSATNAARNAPASAYAAGLFAWTDAEYGFWSSPSNKEIKGVTGTSRPVEFLDGDETCRANLLNNANIATIIRDDGYRLWGNRTLSSDSKWAFVTRVRTMDLVMDAILAGHKWAVDRGITKTYVKDVTEGLRAFMRDLKNQGAVINFEVYADPDLNSASQLAQGKVYWNIRFTDVPPAENPNFRVEVTDQWLTEVLDVA

Molecular target: the molecule itself
Test: cryo-EM structure

Protein | stoichiometry N | binding result
B1 | 6 | –
B2 | – | binds
